From FireProtDB (doi:10.1006/jmbi.1998.1906)
“And” between values parts separate entries of the source, which are not always exact repeats. Identical values can stand only once.

B1: Lysozyme C, P61626 (parent)
chain: MKALIVLGLVLLSVTVQGKVFERCELARTLKRLGMDGYRGISLANWMCLAKWESGYNTRATNYNAGDRSTDYGIFQINSRYWCNDGKTPGAVNACHLSCSALLQDNIADAVACAKRVVRDPQGIRAWVAWRNRCQNRDVRQYVQGCGV

Variants of: B1
Details: Homo sapiens; pH 2.66; Thermal; DSC; glycine 0.05 M; reversible: yes; structure 1LZ1; whole UniProt chain shown

Row | Variant | Tm | unfolding enthalpy (calorimetric) | unfolding enthalpy (van 't Hoff)
1 | I41V | 46.7 °C | 76.3 kcal/mol | 80.4 kcal/mol

Same assay, conditions: Homo sapiens; pH 2.7; 49.2 °C; Thermal; DSC; glycine 0.05 M; reversible: yes; structure 1LZ1; whole UniProt chain shown

Row | Variant | ddG of mutation (higher = less stable) | heat capacity change of unfolding
2 | I41V | 0.41 kcal/mol | 1.82 kcal/mol/K
3 | V139A | 1.75 kcal/mol | 1.37 kcal/mol/K
4 | V92A | 0.43 kcal/mol | 1.53 kcal/mol/K
5 | V118A | 0.57 kcal/mol | 1.84 kcal/mol/K
6 | I124V | 0.98 kcal/mol | 1.72 kcal/mol/K
7 | V111A | 1 kcal/mol | 1.53 kcal/mol/K

Same assay, conditions: Homo sapiens; pH 2.7; Thermal; DSC; glycine 0.05 M; reversible: yes; structure 1LZ1; whole UniProt chain shown

Row | Variant | Tm | change of melting temperature, mutant - wild type (higher = more stable) | heat capacity change of unfolding | unfolding enthalpy (calorimetric) | unfolding enthalpy (van 't Hoff)
8 | I41V | 47.6 °C | -1.6 °C | 1.82 kcal/mol/K | 80.9 kcal/mol | –
9 | V139A | 39.9 °C | -9.3 °C | 1.37 kcal/mol/K | 65.3 kcal/mol | –
10 | V92A | 47.3 °C | -1.9 °C | 1.53 kcal/mol/K | 73.7 kcal/mol | –
11 | V118A | 46.6 °C | -2.6 °C | 1.84 kcal/mol/K | 72.2 kcal/mol | –
12 | I124V | 44.5 °C and 43.6 °C | -4.7 °C and -5.6 °C | 1.72 kcal/mol/K | 70.3 kcal/mol and 59.8 kcal/mol | 66.7 kcal/mol
13 | V117A | 44.8 °C | -4.4 °C | 1.27 kcal/mol/K | 67 kcal/mol | –
14 | V111A | 44.8 °C and 45.2 °C | -4.4 °C and -4 °C | 1.53 kcal/mol/K | 76.3 kcal/mol and 71.1 kcal/mol | 77.3 kcal/mol

Same assay, conditions: Homo sapiens; pH 2.78; Thermal; DSC; glycine 0.05 M; reversible: yes; structure 1LZ1; whole UniProt chain shown

Row | Variant | Tm | unfolding enthalpy (calorimetric) | unfolding enthalpy (van 't Hoff)
15 | I41V | 49.6 °C | 83.5 kcal/mol | 85.9 kcal/mol

Same assay, conditions: Homo sapiens; pH 2.96; Thermal; DSC; glycine 0.05 M; reversible: yes; structure 1LZ1; whole UniProt chain shown

Row | Variant | Tm | unfolding enthalpy (calorimetric) | unfolding enthalpy (van 't Hoff)
16 | I41V | 52.3 °C | 85.4 kcal/mol | 89.2 kcal/mol

Same assay, conditions: Homo sapiens; pH 3.09; Thermal; DSC; glycine 0.05 M; reversible: yes; structure 1LZ1; whole UniProt chain shown

Row | Variant | Tm | unfolding enthalpy (calorimetric) | unfolding enthalpy (van 't Hoff)
17 | I41V | 55 °C | 91.1 kcal/mol | 95 kcal/mol

Same assay, conditions: Homo sapiens; pH 2.72; Thermal; DSC; glycine 0.05 M; reversible: yes; structure 1LZ1; whole UniProt chain shown

Row | Variant | Tm | unfolding enthalpy (calorimetric) | unfolding enthalpy (van 't Hoff)
18 | V139A | 40.3 °C | 53.6 kcal/mol | 56.9 kcal/mol
19 | V118A | 46.8 °C | 68.9 kcal/mol | 73.4 kcal/mol
20 | V117A | 45.3 °C | 62.2 kcal/mol | 65.8 kcal/mol

Same assay, conditions: Homo sapiens; pH 2.86; Thermal; DSC; glycine 0.05 M; reversible: yes; structure 1LZ1; whole UniProt chain shown

Row | Variant | Tm | unfolding enthalpy (calorimetric) | unfolding enthalpy (van 't Hoff)
21 | V139A | 43.6 °C | 57.9 kcal/mol | 62.7 kcal/mol

Same assay, conditions: Homo sapiens; pH 3; Thermal; DSC; glycine 0.05 M; reversible: yes; structure 1LZ1; whole UniProt chain shown

Row | Variant | Tm | unfolding enthalpy (calorimetric) | unfolding enthalpy (van 't Hoff)
22 | V139A | 47 °C | 61.5 kcal/mol | 67.5 kcal/mol
23 | I124V | 49.5 °C | 70.6 kcal/mol | 75.6 kcal/mol

Same assay, conditions: Homo sapiens; pH 3.14; Thermal; DSC; glycine 0.05 M; reversible: yes; structure 1LZ1; whole UniProt chain shown

Row | Variant | Tm | change of melting temperature, mutant - wild type (higher = more stable) | unfolding enthalpy (calorimetric) | unfolding enthalpy (van 't Hoff)
24 | V139A | 50.1 °C | -7.7 °C | 67.2 kcal/mol | 72.5 kcal/mol

Same assay, conditions: Homo sapiens; pH 2.51; Thermal; DSC; glycine 0.05 M; reversible: yes; structure 1LZ1; whole UniProt chain shown

Row | Variant | Tm | unfolding enthalpy (calorimetric) | unfolding enthalpy (van 't Hoff)
25 | V92A | 43.9 °C | 65.6 kcal/mol | 69.9 kcal/mol
26 | V118A | 43.5 °C | 61.5 kcal/mol | 70.1 kcal/mol

Same assay, conditions: Homo sapiens; pH 2.69; Thermal; DSC; glycine 0.05 M; reversible: yes; structure 1LZ1; whole UniProt chain shown

Row | Variant | Tm | unfolding enthalpy (calorimetric) | unfolding enthalpy (van 't Hoff)
27 | V92A | 47.5 °C | 71.5 kcal/mol | 75.6 kcal/mol

Same assay, conditions: Homo sapiens; pH 2.85; Thermal; DSC; glycine 0.05 M; reversible: yes; structure 1LZ1; whole UniProt chain shown

Row | Variant | Tm | unfolding enthalpy (calorimetric) | unfolding enthalpy (van 't Hoff)
28 | V92A | 50.1 °C | 74.4 kcal/mol | 80.9 kcal/mol
29 | V117A | 48.2 °C | 67.2 kcal/mol | 70.6 kcal/mol

Same assay, conditions: Homo sapiens; pH 3.03; Thermal; DSC; glycine 0.05 M; reversible: yes; structure 1LZ1; whole UniProt chain shown

Row | Variant | Tm | unfolding enthalpy (calorimetric) | unfolding enthalpy (van 't Hoff)
30 | V92A | 52.8 °C | 79.2 kcal/mol | 86.4 kcal/mol

Same assay, conditions: Homo sapiens; pH 3.16; Thermal; DSC; glycine 0.05 M; reversible: yes; structure 1LZ1; whole UniProt chain shown

Row | Variant | Tm | unfolding enthalpy (calorimetric) | unfolding enthalpy (van 't Hoff)
31 | V92A | 54.8 °C | 82.5 kcal/mol | 86.4 kcal/mol
32 | V111A | 52.5 °C | 81.8 kcal/mol | 86.4 kcal/mol

Same assay, conditions: Homo sapiens; pH 2.9; Thermal; DSC; glycine 0.05 M; reversible: yes; structure 1LZ1; whole UniProt chain shown

Row | Variant | Tm | unfolding enthalpy (calorimetric) | unfolding enthalpy (van 't Hoff)
33 | V118A | 49.9 °C | 72.5 kcal/mol | 79.2 kcal/mol

Same assay, conditions: Homo sapiens; pH 3.02; Thermal; DSC; glycine 0.05 M; reversible: yes; structure 1LZ1; whole UniProt chain shown

Row | Variant | Tm | unfolding enthalpy (calorimetric) | unfolding enthalpy (van 't Hoff)
34 | V118A | 52 °C | 77.8 kcal/mol | 81.6 kcal/mol
35 | V117A | 51 °C | 68.9 kcal/mol | 72.2 kcal/mol
36 | V111A | 50.1 °C | 77.5 kcal/mol | 83 kcal/mol

Same assay, conditions: Homo sapiens; pH 3.15; Thermal; DSC; glycine 0.05 M; reversible: yes; structure 1LZ1; whole UniProt chain shown

Row | Variant | Tm | unfolding enthalpy (calorimetric) | unfolding enthalpy (van 't Hoff)
37 | V118A | 54.4 °C | 81.8 kcal/mol | 84.7 kcal/mol

Same assay, conditions: Homo sapiens; pH 3.1; Thermal; DSC; glycine 0.05 M; reversible: yes; structure 1LZ1; whole UniProt chain shown

Row | Variant | Tm | unfolding enthalpy (calorimetric) | unfolding enthalpy (van 't Hoff)
38 | I124V | 51.3 °C | 73.7 kcal/mol | 78 kcal/mol
39 | V117A | 52.6 °C | 70.6 kcal/mol | 73.7 kcal/mol

Same assay, conditions: Homo sapiens; pH 2.54; Thermal; DSC; glycine 0.05 M; reversible: yes; structure 1LZ1; whole UniProt chain shown

Row | Variant | Tm | unfolding enthalpy (calorimetric) | unfolding enthalpy (van 't Hoff)
40 | V117A | 41.4 °C | 56 kcal/mol | 59.6 kcal/mol

Same assay, conditions: Homo sapiens; pH 2.5; Thermal; DSC; glycine 0.05 M; reversible: yes; structure 1LZ1; whole UniProt chain shown

Row | Variant | Tm | unfolding enthalpy (calorimetric) | unfolding enthalpy (van 't Hoff)
41 | V111A | 41.2 °C | 64.1 kcal/mol | 71.1 kcal/mol
